The values that follow come from patent publication US20220403048A1, “BINDING MOLECULES TO ARGINASE II [ARG2]” (Cancer Research Technology Limited, priority 2019, published 2022).

One may read the Km as the concentration of substrate that gives half-maximal velocity.

The series has as its target T1, human ARG2 (trimer) (Homo sapiens, UniProt P78540).
T1 construct: human ARG2 (aa23-354); His10 (C); made in house; host or cells: E. coli BL21 (DE3)
T1 sequence (P78540 23-354): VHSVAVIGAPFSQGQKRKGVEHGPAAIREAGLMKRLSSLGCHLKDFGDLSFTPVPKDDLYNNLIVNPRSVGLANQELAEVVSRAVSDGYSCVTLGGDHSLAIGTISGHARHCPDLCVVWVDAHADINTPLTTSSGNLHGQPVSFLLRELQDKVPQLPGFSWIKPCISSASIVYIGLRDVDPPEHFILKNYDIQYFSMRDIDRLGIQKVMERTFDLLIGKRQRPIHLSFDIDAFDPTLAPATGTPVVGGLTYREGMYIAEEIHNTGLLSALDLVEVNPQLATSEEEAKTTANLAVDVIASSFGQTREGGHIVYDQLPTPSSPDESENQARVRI
Description: Mechanism of action study (effect on ARG2 Vmax and Km) in trimeric ARG2 enzyme inhibition assay. Format: biochemical. Conditions: for Km / Vmax: arginine 2.5-250 mM; for mode of action on ARG2: from effects on Vmax and Km. From the text: The mechanism of action of enzyme inhibitors can be broadly divided into competitive, uncompetitive and non-competitive and can be identified as such based on their effects on Km and Vmax.
A competitive inhibitor binds only to free enzyme, often at the active site, causing the affinity of the enzyme for the substrate to be reduced (increased Km) with no change to the maximum enzyme rate (Vmax).
The enzyme's affinity for the substrate is increased (Km is decreased) and the maximum enzyme rate (Vmax) is decreased.
A non-competitive inhibitor binds equally well to free enzyme and enzyme-substrate complex. The enzyme's affinity for the substrate (Km) is unchanged and the maximum enzyme rate (Vmax) is decreased. […]
The mechanism of action of the lead identification clone C0021158 IgG was investigated using the human ARG2 (trimer) enzyme inhibition assay as well as isothermal titration calorimetry.
The enzyme inhibition assay is described in section 1.5 and is a biochemical assay that measures production of urea, the product of L-arginine turnover by ARG2. To investigate the mechanism of action of C0021158 IgG, four point titrations of C0021158 IgG (1000, 100, 30 and 10 nM) were set up in the presence of 11 concentrations of arginine ([…]) and the reaction allowed to proceed for 80, 60, 45, 30, 15 or 5 minutes before the addition of the urea detection reagents O-Phthaldialdehyde and N-(1-Napthyl)ethylenediamine.
Raw data from each separate concentration of C0021158 IgG was plotted as a function of time for each concentration of arginine and fitted using a linear fit (GraphPad Prism) to derive initial velocities (slope values).
Initial velocity data was plotted against arginine concentration for each concentration of C0021158 IgG (FIG. 15A). Each trace was fitted to the Michaelis-Menten model (Y=Vmax*X/(Km+X)) in GraphPad Prism to derive maximum velocity (Vmax) and enzyme/substrate affinity (Km) values at each inhibitor concentration (Table 23).
In the case of C0021158 IgG inhibitor Vmax decreased in the presence of C0021158 IgG inhibitor, ruling out a competitive mode of action and pointing towards an uncompetitive or a non-competitive mode of action. To distinguish non-competitive from uncompetitive modes of action the effect on Km must be assessed. […] This uncharacteristic profile led to poor fitting of the data making it difficult to derive an accurate Km. The lack of accurate Km data means C0021158 IgG cannot be assigned as uncompetitive or non-competitive.

B1: C0021158 IgG: anti-ARG2 antibody, VH SEQ ID NO: 282, VL SEQ ID NO: 287; IgG and Fab versions carry these sequences (antibody, listed as Homo sapiens, V domains shown)
VH: EVQLLESGGGLVQPGGSLRLSCAASGFTFRYEVAAWVRQAPGKGLEWVSAISGPIPKGYYADSVKGRFTISRDNSKNTLYLQMNSLRAEDTAVYYCARLRADLGLYMDLWGRGTLVTVSS
VL: QSVLTQPPSVSAAPGQKVTISCSGSSSNIGNHYVSWYQQLPGTAPKLLIYDNSERTAGVPDRFSGSKSGTSATLGITGLQTGDEADYYCGTWDELTSNLVFGGGTKLTVL
modifications: C0021158 IgG
As for B1, the “mode of action on ARG2” value was “not competitive”. For the same molecule, for the setting “10 nM C0021158 IgG”, the Km is 1640 µM and the Vmax is reported as 148.5 AU ms^−1. For the same molecule, the Vmax (30 nM C0021158 IgG) is recorded as 89.23 AU ms^−1. Further, under “100 nM C0021158 IgG”, the Km was determined as 590 µM and the Vmax was 112.8 AU ms^−1. Moreover, where the note is “1 μM C0021158 IgG”, the Vmax was 103.4 AU ms^−1. Further, where the note is “listed as C0021158 fab”, the “mode of action on ARG2” value is given as “allosteric inhibitor”.
